Source: publication PMC13137973 (2026)

Target: T1, Biotinylated human TNFR2 protein (human, UniProt P20333-1 23-257, biotin (commercial biotinylation kit))
T1 chain: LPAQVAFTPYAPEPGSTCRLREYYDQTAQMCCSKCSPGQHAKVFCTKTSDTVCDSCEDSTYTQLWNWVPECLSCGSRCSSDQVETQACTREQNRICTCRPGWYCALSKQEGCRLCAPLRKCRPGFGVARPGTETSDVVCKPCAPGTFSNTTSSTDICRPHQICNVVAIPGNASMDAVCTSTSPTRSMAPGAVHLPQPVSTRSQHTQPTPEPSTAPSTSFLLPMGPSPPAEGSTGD
Experiment: BLI

B1: human immunodeficiency virus 1 (HIV-1) (group M, subtype B, Isolate MN) gp120 Protein (natural protein)
chain: not shown
koff: 0.00623 s⁻¹
